The record followed here is patent publication US20120114652A1 (AbbVie / Abbott, published 2012).

Assay [1] has as its target T1, R271S stable mutant human PAI-1 (human, UniProt P05121 24-402).
T1 construct: His-tagged, expressed in E. coli
T1 chain: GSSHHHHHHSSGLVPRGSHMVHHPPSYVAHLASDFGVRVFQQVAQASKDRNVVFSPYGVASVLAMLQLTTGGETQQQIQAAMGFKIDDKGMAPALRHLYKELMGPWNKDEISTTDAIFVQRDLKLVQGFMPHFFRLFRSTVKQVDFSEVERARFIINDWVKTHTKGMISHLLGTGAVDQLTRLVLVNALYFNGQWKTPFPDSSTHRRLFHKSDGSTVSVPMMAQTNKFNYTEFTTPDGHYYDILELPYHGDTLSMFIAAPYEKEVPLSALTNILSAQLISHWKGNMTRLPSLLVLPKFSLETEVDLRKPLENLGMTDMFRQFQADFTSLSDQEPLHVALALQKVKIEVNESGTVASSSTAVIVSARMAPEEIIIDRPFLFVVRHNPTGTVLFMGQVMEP
Kind of assay: SPR BIAcore 2000, Antibody 08 on CM5 chip, PAI-1 protein as analyte. In general terms: SPR reads the build-up and loss of mass on a sensor chip optically.

Assay [2] deals with T2, Y220S T267K stable mutant human PAI-1 (human, UniProt P05121 24-402).
T2 construct: His-tagged, expressed in E. coli
T2 chain: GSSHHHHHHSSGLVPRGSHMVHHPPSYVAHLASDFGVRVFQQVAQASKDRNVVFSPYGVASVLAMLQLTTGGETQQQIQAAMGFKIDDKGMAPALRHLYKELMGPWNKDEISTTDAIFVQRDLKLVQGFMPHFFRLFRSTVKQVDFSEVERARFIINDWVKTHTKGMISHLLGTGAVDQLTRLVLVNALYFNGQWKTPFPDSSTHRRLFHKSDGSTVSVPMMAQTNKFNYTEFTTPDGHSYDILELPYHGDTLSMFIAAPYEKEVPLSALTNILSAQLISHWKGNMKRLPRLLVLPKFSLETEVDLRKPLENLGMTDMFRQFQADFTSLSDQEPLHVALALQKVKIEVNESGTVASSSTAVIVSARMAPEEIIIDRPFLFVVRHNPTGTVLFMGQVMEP
Described as above.

Assay [3] has as its target T3, rat PAI-1 (rat, UniProt P20961 24-402).
T3 construct: bought (US Biological)
T3 sequence: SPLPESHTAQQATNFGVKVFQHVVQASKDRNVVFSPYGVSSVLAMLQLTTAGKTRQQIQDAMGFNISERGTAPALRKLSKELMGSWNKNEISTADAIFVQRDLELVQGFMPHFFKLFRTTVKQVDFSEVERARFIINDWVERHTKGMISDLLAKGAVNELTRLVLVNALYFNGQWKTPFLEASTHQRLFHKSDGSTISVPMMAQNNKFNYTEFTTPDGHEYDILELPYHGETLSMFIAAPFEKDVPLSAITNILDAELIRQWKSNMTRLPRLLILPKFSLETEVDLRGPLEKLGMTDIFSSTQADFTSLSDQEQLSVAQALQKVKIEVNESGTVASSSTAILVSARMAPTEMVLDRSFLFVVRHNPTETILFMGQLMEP
Briefly: SPR BIAcore T100, Antibody 08 on CM3 chip, PAI-1 as analyte, 25 C, n = 2.

Assay [4] deals with T4, glycosylated active human PAI-1 produced by CHO cells (human, UniProt P05121 24-402, N-glycosylated (CHO-produced)).
T4 construct: also called hu glyco; human glycosylated PAI-1
Briefly: SPR BIAcore T100, Antibody 08 on CM3 chip, PAI-1 as analyte, 25 C, n = 5.

Assay [5] concerns the target T5, cynomolgus PAI-1 (cynomolgus, UniProt P05121 24-402 (human entry), limits assumed).
T5 construct: bacterially derived, made in house; also called cyno PAI-1
Described as above.

The target in assay [6] is T5, cynomolgus PAI-1. Briefly: SPR BIAcore T100, Antibody 08 on CM3 chip, PAI-1 as analyte, 37 C, n = 1.
For assay [7], the target named is T4, glycosylated active human PAI-1 …. Briefly: SPR BIAcore T100, Antibody 08 on CM3 chip, PAI-1 as analyte, 37 C, n = 2.
Assay [8] deals with T6, human PAI-1, active, wild-type, non-glycosylated (E. coli-derived) (human, UniProt P05121 24-402). Briefly: cell-based or functional assay.
For assay [9], the target named is T5, cynomolgus PAI-1. Briefly: cell-based or functional assay.
Assay [10] deals with T3, rat PAI-1. Briefly: cell-based or functional assay.
Assay [11] addresses T6, human PAI-1, active, wild-type, …. Briefly: SPR BIAcore, CAT-1001 amino-linked to CM3 chip, human wild-type PAI-1 as analyte, 1:1 Langmuir.
In the next assay the target is PAI-2 (UniProt P05120 1-415, limits assumed). Briefly: competition ELISA (DELFIA): PICK167_A01-fgl IgG1 (CAT-1001) coated on the plate, biotinylated human PAI-1, titration of the unlabelled test antigen. (In general: In an ELISA, binding on a coated surface is turned into a signal by an enzyme label.)
A further assay deals with T7, PAI-3 (UniProt P05154 26-406, limits assumed).
T7 sequence (looked up): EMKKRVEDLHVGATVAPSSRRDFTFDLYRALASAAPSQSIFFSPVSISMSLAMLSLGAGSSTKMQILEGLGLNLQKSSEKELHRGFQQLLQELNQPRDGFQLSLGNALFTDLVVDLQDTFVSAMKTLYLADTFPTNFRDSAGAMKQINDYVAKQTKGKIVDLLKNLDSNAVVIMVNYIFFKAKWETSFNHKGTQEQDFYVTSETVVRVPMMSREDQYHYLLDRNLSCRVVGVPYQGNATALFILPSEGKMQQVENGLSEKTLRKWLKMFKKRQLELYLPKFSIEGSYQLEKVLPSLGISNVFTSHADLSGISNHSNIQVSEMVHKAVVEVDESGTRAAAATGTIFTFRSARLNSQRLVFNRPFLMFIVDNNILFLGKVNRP
The assay is described as above.

A further assay concerns the target antithrombin III (UniProt P01008 33-464). The assay is described as above.
For another assay, the target named is T8, α1-antitrypsin (UniProt P01009 25-418).
T8 construct: also called alpha-1-antitrypsin
The assay is described as above.

The target of another assay is T9, α1-antichymotrypsin (UniProt P01011 24-423).
T9 sequence (looked up): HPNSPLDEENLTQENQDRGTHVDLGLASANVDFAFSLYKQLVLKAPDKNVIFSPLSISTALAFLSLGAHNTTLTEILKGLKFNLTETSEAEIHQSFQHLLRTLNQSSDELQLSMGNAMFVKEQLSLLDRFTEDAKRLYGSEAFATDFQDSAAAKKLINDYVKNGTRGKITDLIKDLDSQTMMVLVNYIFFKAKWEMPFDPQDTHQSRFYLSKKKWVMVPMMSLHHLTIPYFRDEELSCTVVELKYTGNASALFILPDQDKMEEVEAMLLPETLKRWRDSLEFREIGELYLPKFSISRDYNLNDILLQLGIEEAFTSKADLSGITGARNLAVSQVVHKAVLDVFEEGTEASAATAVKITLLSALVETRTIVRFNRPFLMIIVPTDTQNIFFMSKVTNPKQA
Described as above.

The target of the next assay is T10, α2-antiplasmin (UniProt P08697 40-491, limits assumed).
T10 sequence (looked up): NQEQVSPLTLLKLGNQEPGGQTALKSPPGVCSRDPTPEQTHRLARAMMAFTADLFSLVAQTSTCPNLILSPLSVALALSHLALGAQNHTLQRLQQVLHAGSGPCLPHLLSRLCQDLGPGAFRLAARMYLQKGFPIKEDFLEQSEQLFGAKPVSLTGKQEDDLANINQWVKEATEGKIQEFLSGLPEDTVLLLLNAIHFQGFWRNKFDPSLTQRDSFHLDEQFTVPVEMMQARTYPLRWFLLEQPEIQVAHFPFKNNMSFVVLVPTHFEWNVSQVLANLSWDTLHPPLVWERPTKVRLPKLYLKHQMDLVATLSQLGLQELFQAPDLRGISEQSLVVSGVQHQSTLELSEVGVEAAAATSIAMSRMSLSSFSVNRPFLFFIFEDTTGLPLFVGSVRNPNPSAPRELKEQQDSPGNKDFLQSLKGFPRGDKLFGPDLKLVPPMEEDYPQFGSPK
Described as above.

B1: Antibody 08 (as coupled to the BIAcore chip; format not stated) (antibody, V domains shown)
VH: QVQLVQSGAEVKKPGSSVKVSCKASGGTFSSYAISWVRQAPGQGLEWMGGIIPTFGTANYAQKFQGRVTITADESTSTAYMELSSLRSEDTAVYYCARERRQWLEGHFDYWGRGTLVTVSS
VL: DIQMTQSPSTLSASVGDRVTITCRASEGIYHNLAWYQQKPGKAPKLLIYKASSLASGVPSRFSGSRSGTEFTLTISSLQPDDFATYYCQQYSNYPLTFGGGTKVEIK
notes: also called candidate antibody (Antibody 08)
A word on the Kd: it is a measure of binding affinity in units of concentration. A high value points to lower affinity. On to B1, for which the Kd amounted to 7.4 nM in assay [1]; 0.14 nM in assay [2]; 0.105 nM in the assay with rat PAI-1 [3]; 0.006 nM in assay [4]; 0.013 nM in the assay with cynomolgus PAI-1 [5]; 0.013 nM with cynomolgus PAI-1 [6]. Further, the Kd in assay [7] came to 0.007 nM.

B2: PICK167_A01-fgl IgG1 (CAT-1001) (antibody, V domains shown)
VH: QVQLVQSGAEVKKPGSSVKVSCKASGGTFSSYAISWVRQAPGQGLEWMGGIIPTFGTANYAQKFQGRVTITADESTSTAYMELSSLRSEDTAVYYCARERRQWLEGHFDYWGRGTLVTVSS
VL: DIQMTQSPSTLSASVGDRVTITCRASEGIYHNLAWYQQKPGKAPKLLIYKASSLASGVPSRFSGSRSGTEFTLTISSLQPDDFATYYCQQYSNYPLTFGGGTKVEIKR
notes: fully germlined variant, made as an IgG1 only; also called PICK67A01-fgl
As to B2, the “IC50, HT1080 plasminogen activation assay” value came to 13.2 nM in assay [8] and 22.8 nM with rat PAI-1 [10]. In addition, the “IC50, PAI-1:tPA functional assay” value in assay [8] came to 1.65 nM; with cynomolgus PAI-1 [9], 0.77 nM; with rat PAI-1 [10] it was 3.07 nM. The “pIC50, HT1080 plasminogen activation assay” value was determined as 7.87 in [8] and 7.64 in the assay with rat PAI-1 [10]. The molecule also came in with a dissociation constant (Kd) in assay [11] of 0.016 nM. For the same molecule, the binding result with PAI-2, in the assay with PAI-3, in the assay with antithrombin III, with α1-antitrypsin, with α1-antichymotrypsin and with α2-antiplasmin was “no binding (tested: log M about -6.3 (about 5e-7 M))” each time.
